Measurements reported in patent US11230581B2, “Peptides and combination of peptides for use in immunotherapy against ovarian cancer and other cancers” (Immatics Biotechnologies GmbH, priority 2015, dated 2022).

Biological target: HLA-A*02:01 (Homo sapiens, UniProt P04439, D140Y/D185E/D98H/E176V/E277Q/G131W/G231S/I119V/I121R/I166T/I218V/L300P/L318F/N151K/N90K/P208A/P217A/Q86G/Q94H/R138H/R169H/T345S)
Assay: MHC binding assay (UV-ligand exchange, β2m ELISA, peptide exchange yield)
Conditions: binding of HLA-class I restricted peptides to HLA-A*02:01, UV-ligand exchange
Excerpt: Candidate peptides for T cell based therapies according to the present invention were further tested for their MHC binding capacity (affinity). The individual peptide-MHC complexes were produced by UV-ligand exchange, where a UV-sensitive peptide is cleaved upon UV-irradiation, and exchanged with the peptide of interest as analyzed. Only peptide candidates that can effectively bind and stabilize the peptide-receptive MHC molecules prevent dissociation of the MHC complexes. To determine the yield of the exchange reaction, an ELISA was performed based on the detection of the light chain (β2m) of stabilized MHC complexes. The assay was performed as generally described in Rodenko et al. (Rodenko et al., 2006).
96 well MAXISorp plates (NUNC) were coated over night with 2 ug/ml streptavidin in PBS at room temperature, washed 4× and blocked for 1h at 37° C. in 2% BSA containing blocking buffer. […] Peptide-MHC monomers of the UV-exchange reaction were diluted 100 fold in blocking buffer. Samples were incubated for 1 h at 37° C., washed four times, incubated with 2 ug/ml HRP conjugated anti-β2m for 1h at 37° C., washed again and detected with TMB solution that is stopped with […]. Absorption was measured at 450 nm. Candidate peptides that show a high exchange yield (preferably higher than 50%, most preferred higher than 75%) are generally preferred for a generation and production of antibodies or fragments thereof, and/or T cell receptors or fragments thereof, as they show sufficient avidity to the MHC molecules and prevent dissociation of the MHC complexes.

With “119 (FLYIGDIVSL; listed as Homo sapiens) [compound 119]” the “Peptide exchange (MHC class I binding score, peptide exchange yield)” value (“Peptide exchange” below) was ““++++” (≥75% = ++++)”.

“120 (ALLGIPLTLV; listed as Homo sapiens) [compound 120]” was tested, and the “Peptide exchange” value was ““+++” (≥50 = +++)”.

“121 (GVVDPRAISVL; listed as Homo sapiens) [compound 121]” was tested, and the “Peptide exchange” value was ““++” (≥20% = ++)”.

“122 (FLLAEDDIYL; listed as Homo sapiens) [compound 122]” was tested, and the “Peptide exchange” value was ““+++” (≥50 = +++)”.

With “123 (NLWDLTDASVV; listed as Homo sapiens) [compound 123]” the “Peptide exchange” value was ““+++” (≥50 = +++)”.

In the case of “124 (ALYETELADA; listed as Homo sapiens) [compound 124]”, the “Peptide exchange” value is reported as ““++” (≥20% = ++)”.

With “125 (VQIHQVAQV; listed as Homo sapiens) [compound 125]” the “Peptide exchange” value was ““+++” (≥50 = +++)”.

In the case of “126 (VLAYFLPEA; listed as Homo sapiens) [compound 126]”, the “Peptide exchange” value is reported as ““++++” (≥75% = ++++)”.

“127 (KIGDEPPKV; listed as Homo sapiens) [compound 127]” was tested, and the “Peptide exchange” value was ““++” (≥20% = ++)”.

In the case of “128 (YLFDDPLSAV; listed as Homo sapiens) [compound 128]”, the “Peptide exchange” value is reported as ““++” (≥20% = ++)”.

With “129 (GLLDGGVDILL; listed as Homo sapiens) [compound 129]” the “Peptide exchange” value was ““+++” (≥50 = +++)”.

For “130 (FLWNGEDSALL; listed as Homo sapiens) [compound 130]”, the “Peptide exchange” value was ““+++” (≥50 = +++)”.

With “131 (FVPPVTVFPSL; listed as Homo sapiens) [compound 131]” the “Peptide exchange” value was ““++” (≥20% = ++)”.

For “132 (LLVEQPPLAGV; listed as Homo sapiens) [compound 132]”, the “Peptide exchange” value was ““+++” (≥50 = +++)”.

“133 (KVLSNIHTV; listed as Homo sapiens) [compound 133]” was tested, and the “Peptide exchange” value was ““++” (≥20% = ++)”.

In the case of “134 (YLQELIFSV; listed as Homo sapiens) [compound 134]”, the “Peptide exchange” value is reported as ““+++” (≥50 = +++)”.

With “135 (ALSEVDFQL; listed as Homo sapiens) [compound 135]” the “Peptide exchange” value was ““+++” (≥50 = +++)”.

In the case of “136 (YLADPSNLFVV; listed as Homo sapiens) [compound 136]”, the “Peptide exchange” value is reported as ““+++” (≥50 = +++)”.

“137 (TLVLTLPTV; listed as Homo sapiens) [compound 137]” was tested, and the “Peptide exchange” value was ““++++” (≥75% = ++++)”.

With “138 (YQYPRAILSV; listed as Homo sapiens) [compound 138]” the “Peptide exchange” value was ““+++” (≥50 = +++)”.

For “139 (SVMEVNSGIYRV; listed as Homo sapiens) [compound 139]”, the “Peptide exchange” value was ““+++” (≥50 = +++)”.

In the case of “140 (YMDAPKAAL; listed as Homo sapiens) [compound 140]”, the “Peptide exchange” value is reported as ““++” (≥20% = ++)”.

“141 (YLDFSNNRL; listed as Homo sapiens) [compound 141]” was tested, and the “Peptide exchange” value was ““++” (≥20% = ++)”.

For “142 (FLFATPVFI; listed as Homo sapiens) [compound 142]”, the “Peptide exchange” value was ““+++” (≥50 = +++)”.

For “143 (LLLDITPEI; listed as Homo sapiens) [compound 143]”, the “Peptide exchange” value was ““++++” (≥75% = ++++)”.

“144 (YIMEPSIFNTL; listed as Homo sapiens) [compound 144]” was tested, and the “Peptide exchange” value was ““+++” (≥50 = +++)”.

With “145 (FLATSGTLAGI; listed as Homo sapiens) [compound 145]” the “Peptide exchange” value was ““++” (≥20% = ++)”.

With “146 (SLATAGDGLIEL; listed as Homo sapiens) [compound 146]” the “Peptide exchange” value was ““++” (≥20% = ++)”.

“147 (SLLEAVSFL; listed as Homo sapiens) [compound 147]” was tested, and the “Peptide exchange” value was ““+++” (≥50 = +++)”.

“148 (ALNPEIVSV; listed as Homo sapiens) [compound 148]” was tested, and the “Peptide exchange” value was ““++” (≥20% = ++)”.

With “149 (NLLELFVQL; listed as Homo sapiens) [compound 149]” the “Peptide exchange” value was ““+++” (≥50 = +++)”.

With “150 (RLWEEGEELEL; listed as Homo sapiens) [compound 150]” the “Peptide exchange” value was ““+++” (≥50 = +++)”.

For “151 (KILQQLVTL; listed as Homo sapiens) [compound 151]”, the “Peptide exchange” value was ““+++” (≥50 = +++)”.

With “152 (ILFEDIFDV; listed as Homo sapiens) [compound 152]” the “Peptide exchange” value was ““+++” (≥50 = +++)”.

With “153 (FLIANVLYL; listed as Homo sapiens) [compound 153]” the “Peptide exchange” value was ““+” (≥10% = +)”.

For “154 (ALDDGTPAL; listed as Homo sapiens) [compound 154]”, the “Peptide exchange” value was ““++” (≥20% = ++)”.

With “155 (RVANLHFPSV; listed as Homo sapiens) [compound 155]” the “Peptide exchange” value was ““+++” (≥50 = +++)”.

“157 (SLNDEVPEV; listed as Homo sapiens) [compound 157]” was tested, and the “Peptide exchange” value was ““++” (≥20% = ++)”.

“158 (KLFDVDEDGYI; listed as Homo sapiens) [compound 158]” was tested, and the “Peptide exchange” value was ““+++” (≥50 = +++)”.

For “159 (GLVGNPLPSV; listed as Homo sapiens) [compound 159]”, the “Peptide exchange” value was ““++++” (≥75% = ++++)”.

For “160 (FLFDEEIEQI; listed as Homo sapiens) [compound 160]”, the “Peptide exchange” value was ““+++” (≥50 = +++)”.

With “161 (ALLEGVNTV; listed as Homo sapiens) [compound 161]” the “Peptide exchange” value was ““+++” (≥50 = +++)”.

For “162 (YQQAQVPSV; listed as Homo sapiens) [compound 162]”, the “Peptide exchange” value was ““+++” (≥50 = +++)”.

In the case of “163 (ALDEMGDLLQL; listed as Homo sapiens) [compound 163]”, the “Peptide exchange” value is reported as ““+++” (≥50 = +++)”.

“164 (ALLPQPKNLTV; listed as Homo sapiens) [compound 164]” was tested, and the “Peptide exchange” value was ““+++” (≥50 = +++)”.

For “165 (SLLDEIRAV; listed as Homo sapiens) [compound 165]”, the “Peptide exchange” value was ““+++” (≥50 = +++)”.

With “166 (YLNHLEPPV; listed as Homo sapiens) [compound 166]” the “Peptide exchange” value was ““+++” (≥50 = +++)”.

In the case of “167 (KVLEVTEEFGV; listed as Homo sapiens) [compound 167]”, the “Peptide exchange” value is reported as ““+++” (≥50 = +++)”.

For “168 (KILDADIQL; listed as Homo sapiens) [compound 168]”, the “Peptide exchange” value was ““++++” (≥75% = ++++)”.

In the case of “169 (NLPEYLPFV; listed as Homo sapiens) [compound 169]”, the “Peptide exchange” value is reported as ““+++” (≥50 = +++)”.

In the case of “170 (RLQETLSAA; listed as Homo sapiens) [compound 170]”, the “Peptide exchange” value is reported as ““+++” (≥50 = +++)”.

“171 (LLLPLQILL; listed as Homo sapiens) [compound 171]” was tested, and the “Peptide exchange” value was ““+++” (≥50 = +++)”.

For “172 (VLYSYTIITV; listed as Homo sapiens) [compound 172]”, the “Peptide exchange” value was ““++” (≥20% = ++)”.

With “173 (LLDSASAGLYL; listed as Homo sapiens) [compound 173]” the “Peptide exchange” value was ““+++” (≥50 = +++)”.

With “174 (ALAQYLITA; listed as Homo sapiens) [compound 174]” the “Peptide exchange” value was ““+++” (≥50 = +++)”.

In the case of “175 (YLFENISQL; listed as Homo sapiens) [compound 175]”, the “Peptide exchange” value is reported as ““+++” (≥50 = +++)”.
